The values that follow come from the Immune Epitope Database (IEDB).

Holding throughout (test): IEDB peptide-MHC binding, purified MHC/competitive/radioactivity; filed as Kd, often an IC50 or EC50 that approximates it; ≥ and ≤ were set here for values at or beyond the usual limits of such assays
The target of test [1] is HLA-A*03:01.
Test [2] addresses HLA-A*11:01.
Test [3] has as its target HLA-A*31:01.
The target of test [4] is HLA-A*33:01.
The target in test [5] is HLA-A*68:01.
The mark [6] stands for this setting: source organism: Vaccinia virus WR.
Where [7] appears, read: source organism: Lymphocytic choriomeningitis virus (strain Armstrong).
The mark [8] stands for this setting: source organism: SARS coronavirus Tor2.
Where [9] appears, read: source organism: Mammarenavirus machupoense.
Where [10] appears, read: source organism: Mammarenavirus lassaense.
Setting [11] is: source organism: Mammarenavirus juninense.

As usually defined, the Kd is the equilibrium constant for the complex coming apart. Regarding RASTTENAAY, the Kd is 13400 nM in test [1] (setting [6]); 564 nM in test [2] (setting [6]); 2090 nM in test [3] (setting [6]); no less than 70000 nM in test [4] (setting [6]); 4630 nM in test [5] (setting [6]).
As for RCHDHYLCRH, the Kd in test [1] (setting [7]) was no less than 46800 nM; in test [2] (setting [7]), no less than 69700 nM; in test [3] (setting [7]), 14400 nM; in test [4] (setting [7]), no less than 70000 nM; in test [5] (setting [7]), no less than 70100 nM.
As for RFVEELLHR, the Kd in test [1] (setting [6]) worked out at 2180 nM; in test [2] (setting [6]) it was 3450 nM; in test [3] (setting [6]) it was 19.7 nM; in test [4] (setting [6]), 686 nM; in test [5] (setting [6]) it was 227 nM.
Turning to RSKQKIGDLR, the Kd in test [1] (setting [6]) turned out to be 3830 nM; in test [2] (setting [6]) it was 14000 nM; in test [3] (setting [6]), 48.3 nM; in test [4] (setting [6]) it was 12700 nM; in test [5] (setting [6]), 1300 nM.
With RVPRNLTLSK, the Kd in test [1] (setting [8]) is 12.4 nM; in test [2] (setting [8]), 8.33 nM; in test [3] (setting [8]), 767 nM; in test [4] (setting [8]), no less than 70000 nM; in test [5] (setting [8]), 2100 nM.
For the sequence SFKLILAEY, the Kd is no less than 76900 nM in test [1] (setting [6]); 13500 nM in test [2] (setting [6]); 681 nM in test [3] (setting [6]); 11700 nM in test [4] (setting [6]); no less than 26000 nM in test [5] (setting [6]).
In the case of SILSLETVK, the Kd stood at 24.9 nM in test [1] (setting [6]); 4.15 nM in test [2] (setting [6]); 2610 nM in test [3] (setting [6]); 18500 nM in test [4] (setting [6]); 515 nM in test [5] (setting [6]).
For SMQGAVDINR, the dissociation constant (Kd) turned out to be 2290 nM in test [1] (setting [8]); 1160 nM in test [2] (setting [8]); 188 nM in test [3] (setting [8]); 470 nM in test [4] (setting [8]); 142 nM in test [5] (setting [8]).
With SSSVDVDIY, the Kd in test [1] (setting [6]) was no less than 65300 nM; in test [2] (setting [6]) it was no less than 43700 nM; in test [3] (setting [6]) it was 2730 nM; in test [4] (setting [6]), no less than 72700 nM; in test [5] (setting [6]), 2950 nM.
Regarding SSTCSAVTDR, the Kd in test [1] (setting [6]) worked out at 11400 nM; in test [2] (setting [6]), 173 nM; in test [3] (setting [6]) it was 123 nM; in test [4] (setting [6]) it was 708 nM; in test [5] (setting [6]) it was 87.4 nM.
In the same order, the values of STIANSNIIK are 251 nM, 0.545 nM, 1130 nM, 19500 nM and 16.1 nM.
Regarding TAKVIKLVK, the equilibrium dissociation constant (Kd) was no less than 52300 nM in test [1] (setting [6]); 985 nM in test [2] (setting [6]); 19900 nM in test [3] (setting [6]); no less than 77700 nM in test [4] (setting [6]); 4910 nM in test [5] (setting [6]).
As for TAVAKCNQNH, the dissociation constant Kd in test [1] (setting [9]) was no less than 70000 nM; in test [2] (setting [9]), no less than 69700 nM; in test [3] (setting [9]), no less than 70000 nM; in test [4] (setting [9]), no less than 68800 nM; in test [5] (setting [9]), no less than 70100 nM.
With TYLGPQFCK, the Kd is 156 nM in test [1] (setting [10]); 13.3 nM in test [2] (setting [10]); 5080 nM in test [3] (setting [10]); 310 nM in test [4] (setting [10]); 32.3 nM in test [5] (setting [10]).
As to VFGSTMNNK, the equilibrium dissociation constant (Kd) was 4340 nM in test [1] (setting [8]); 2510 nM in test [2] (setting [8]); 2630 nM in test [3] (setting [8]); no less than 43700 nM in test [4] (setting [8]); 4460 nM in test [5] (setting [8]).
Consider VIENGILKK, for which the Kd is 438 nM in test [1] (setting [6]); 29.6 nM in test [2] (setting [6]); 12900 nM in test [3] (setting [6]); no less than 77700 nM in test [4] (setting [6]); 1830 nM in test [5] (setting [6]).
For VIRLLIWAY, the equilibrium dissociation constant (Kd) is 12900 nM in test [1] (setting [6]); 1930 nM in test [2] (setting [6]); 1220 nM in test [3] (setting [6]); 12400 nM in test [4] (setting [6]); 5930 nM in test [5] (setting [6]).
As for VMNFIPIIY, the Kd is 58.7 nM in test [1] (setting [6]); 60.5 nM in test [2] (setting [6]); no less than 20900 nM in test [3] (setting [6]); no less than 77700 nM in test [4] (setting [6]); 8850 nM in test [5] (setting [6]).
In the same order, the values of VSLVKKNKKR are no less than 30500 nM, 6450 nM, 324 nM, 6890 nM and no less than 47800 nM.
Take YAKKFKTGMH: the equilibrium dissociation constant (Kd) in test [1] (setting [11]) was no less than 70000 nM; in test [2] (setting [11]), no less than 69700 nM; in test [3] (setting [11]) it was no less than 28200 nM; in test [4] (setting [11]), no less than 29200 nM; in test [5] (setting [11]) it was no less than 70100 nM.
For YLINPNILY, the Kd in test [1] (setting [6]) is 1520 nM; in test [2] (setting [6]) it was 376 nM; in test [3] (setting [6]), no less than 77900 nM; in test [4] (setting [6]), no less than 45100 nM; in test [5] (setting [6]), 3240 nM.
Turning to YLLVKWIRK, the equilibrium dissociation constant (Kd) in test [1] (setting [6]) is 7.5 nM; in test [2] (setting [6]), 84 nM; in test [3] (setting [6]) it was 285 nM; in test [4] (setting [6]), 5200 nM; in test [5] (setting [6]), no less than 35200 nM.
On to YSRVNHAKY, for which the Kd is 1530 nM in test [1] (setting [6]); no less than 42200 nM in test [2] (setting [6]); no less than 73700 nM in test [3] (setting [6]); no less than 77700 nM in test [4] (setting [6]); 1190 nM in test [5] (setting [6]).
Regarding YTNEIIGYK, the dissociation constant Kd was found to be 4.97 nM in test [1] (setting [8]); 2.56 nM in test [2] (setting [8]); 937 nM in test [3] (setting [8]); 414 nM in test [4] (setting [8]); 2.24 nM in test [5] (setting [8]).
